From the supplement of paper PMC9112550, “Optimization of the antimicrobial peptide Bac7 by deep mutational scanning” (BMC Biology, 2022)

System: Escherichia coli TOP10
Assay: shrunken log2 fold change of peptide-encoding DNA abundance (4.5 h post-induction vs induction); higher = less antimicrobial activity (less host growth inhibition)
Conditions: time post-induction: 4.5 h; library: site-saturation at positions 5, 18, 19, 20
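Note: peptides expressed intracellularly from a pBAD plasmid library in pooled LB shake-flask culture, induced with 0.3% L-arabinose, DNA abundance read by NGS, three biological replicates, DESeq2 with apeglm shrinkage.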

How did the “shrunken log2 fold change” value turn out when RRIRPRPPRLPRPRPRPVFRPRP was run?
The value was -0.332.

For RRIRPRPPRLPRPRPRPVFVPRP, which “shrunken log2 fold change” value is on record?
Its value is 0.0959.

RRIRPRPPRLPRPRPRPVFWPRP was tested. Which “shrunken log2 fold change” value did it give?
The value was 0.546.

RRIRPRPPRLPRPRPRPVGIPRP was tested. Which “shrunken log2 fold change” value did it give?
Its value is 0.0618.

With RRIRPRPPRLPRPRPRPVGPPRP as the sequence, how does the “shrunken log2 fold change” value read?
The value was 0.427.

With RRIRPRPPRLPRPRPRPVHCPRP as the sequence, how does the “shrunken log2 fold change” value read?
The value was 0.046.

With RRIRPRPPRLPRPRPRPVHNPRP as the sequence, how does the “shrunken log2 fold change” value read?
Its value is -0.038.

RRIRPRPPRLPRPRPRPVHRPRP was tested. Which “shrunken log2 fold change” value did it give?
Its value is 0.0193.

For RRIRPRPPRLPRPRPRPVIVPRP, which “shrunken log2 fold change” value is on record?
Its value is -0.212.

RRIRPRPPRLPRPRPRPVKPPRP was tested. Which “shrunken log2 fold change” value did it give?
Its value is -0.14.

With RRIRPRPPRLPRPRPRPVMCPRP as the sequence, how does the “shrunken log2 fold change” value read?
Its value is 0.218.

Which “shrunken log2 fold change” value does the source give for RRIRPRPPRLPRPRPRPVMKPRP here?
The value was -0.00931.

RRIRPRPPRLPRPRPRPVQKPRP was tested. Which “shrunken log2 fold change” value did it give?
The value was 0.0644.

For RRIRPRPPRLPRPRPRPVRWPRP, which “shrunken log2 fold change” value is on record?
The value was 0.819.

With RRIRPRPPRLPRPRPRPVSRPRP as the sequence, how does the “shrunken log2 fold change” value read?
The value was 0.0925.

How did the “shrunken log2 fold change” value turn out when RRIRPRPPRLPRPRPRPVSTPRP was run?
Its value is 0.13.

For RRIRPRPPRLPRPRPRPVTTPRP, which “shrunken log2 fold change” value is on record?
Its value is -0.0302.

RRIRPRPPRLPRPRPRPWAKPRP was tested. Which “shrunken log2 fold change” value did it give?
The value was -0.0178.

Which “shrunken log2 fold change” value does the source give for RRIRPRPPRLPRPRPRPWAMPRP here?
The value was -0.223.

RRIRPRPPRLPRPRPRPWEIPRP was tested. Which “shrunken log2 fold change” value did it give?
The value was -0.00151.

Which “shrunken log2 fold change” value does the source give for RRIRPRPPRLPRPRPRPWEQPRP here?
Its value is 0.201.

Which “shrunken log2 fold change” value does the source give for RRIRPRPPRLPRPRPRPWGEPRP here?
The value was 0.113.

Which “shrunken log2 fold change” value does the source give for RRIRPRPPRLPRPRPRPWLTPRP here?
The value was -0.123.

RRIRPRPPRLPRPRPRPWMAPRP was tested. Which “shrunken log2 fold change” value did it give?
Its value is -0.113.

Which “shrunken log2 fold change” value does the source give for RRIRPRPPRLPRPRPRPWMRPRP here?
The value was 0.715.

For RRIRPRPPRLPRPRPRPWNVPRP, which “shrunken log2 fold change” value is on record?
The value was -0.052.

For RRIRPRPPRLPRPRPRPWPMPRP, which “shrunken log2 fold change” value is on record?
The value was -0.151.

For RRIRPRPPRLPRPRPRPWQDPRP, which “shrunken log2 fold change” value is on record?
Its value is 0.115.

For RRIRPRPPRLPRPRPRPWRIPRP, which “shrunken log2 fold change” value is on record?
The value was -0.0585.

With RRIRPRPPRLPRPRPRPWRSPRP as the sequence, how does the “shrunken log2 fold change” value read?
Its value is 0.0793.

RRIRPRPPRLPRPRPRPWRVPRP was tested. Which “shrunken log2 fold change” value did it give?
The value was 0.244.

RRIRPRPPRLPRPRPRPWSHPRP was tested. Which “shrunken log2 fold change” value did it give?
Its value is -0.157.

With RRIRPRPPRLPRPRPRPWVMPRP as the sequence, how does the “shrunken log2 fold change” value read?
Its value is 0.211.

Which “shrunken log2 fold change” value does the source give for RRIRPRPPRLPRPRPRPWVYPRP here?
Its value is -0.227.

How did the “shrunken log2 fold change” value turn out when RRIRPRPPRLPRPRPRPWWRPRP was run?
The value was 0.14.

RRIRPRPPRLPRPRPRPWYLPRP was tested. Which “shrunken log2 fold change” value did it give?
Its value is -0.591.

Which “shrunken log2 fold change” value does the source give for RRIRPRPPRLPRPRPRPWYPPRP here?
Its value is -0.119.

How did the “shrunken log2 fold change” value turn out when RRIRPRPPRLPRPRPRPYCIPRP was run?
The value was -0.654.

With RRIRPRPPRLPRPRPRPYDMPRP as the sequence, how does the “shrunken log2 fold change” value read?
Its value is -0.748.

Which “shrunken log2 fold change” value does the source give for RRIRPRPPRLPRPRPRPYDPPRP here?
Its value is -0.301.

With RRIRPRPPRLPRPRPRPYDTPRP as the sequence, how does the “shrunken log2 fold change” value read?
The value was 0.0749.

How did the “shrunken log2 fold change” value turn out when RRIRPRPPRLPRPRPRPYEGPRP was run?
Its value is -0.0988.

With RRIRPRPPRLPRPRPRPYELPRP as the sequence, how does the “shrunken log2 fold change” value read?
Its value is -0.0423.

With RRIRPRPPRLPRPRPRPYFGPRP as the sequence, how does the “shrunken log2 fold change” value read?
The value was -0.522.

Which “shrunken log2 fold change” value does the source give for RRIRPRPPRLPRPRPRPYFHPRP here?
Its value is -0.522.

With RRIRPRPPRLPRPRPRPYGMPRP as the sequence, how does the “shrunken log2 fold change” value read?
Its value is -0.155.

For RRIRPRPPRLPRPRPRPYHLPRP, which “shrunken log2 fold change” value is on record?
The value was -1.07.

Which “shrunken log2 fold change” value does the source give for RRIRPRPPRLPRPRPRPYIVPRP here?
The value was -0.15.

Which “shrunken log2 fold change” value does the source give for RRIRPRPPRLPRPRPRPYPFPRP here?
The value was -0.0133.

How did the “shrunken log2 fold change” value turn out when RRIRPRPPRLPRPRPRPYPRPRP was run?
The value was 0.0824.

RRIRPRPPRLPRPRPRPYRDPRP was tested. Which “shrunken log2 fold change” value did it give?
Its value is 0.0239.

Which “shrunken log2 fold change” value does the source give for RRIRPRPPRLPRPRPRPYSQPRP here?
Its value is -1.06.

For RRIRPRPPRLPRPRPRPYSSPRP, which “shrunken log2 fold change” value is on record?
Its value is -0.282.

How did the “shrunken log2 fold change” value turn out when RRIRPRPPRLPRPRPRPYTPPRP was run?
The value was -0.447.

For RRIRPRPPRLPRPRPRPYTTPRP, which “shrunken log2 fold change” value is on record?
The value was -0.52.

How did the “shrunken log2 fold change” value turn out when RRIRPRPPRLPRPRPRPYVAPRP was run?
The value was -0.465.

RRIRPRPPRLPRPRPRPYVCPRP was tested. Which “shrunken log2 fold change” value did it give?
Its value is -0.73.

RRIRPRPPRLPRPRPRPYWAPRP was tested. Which “shrunken log2 fold change” value did it give?
The value was -0.365.

How did the “shrunken log2 fold change” value turn out when RRIRPRPPRLPRPRPRPYWSPRP was run?
The value was -0.324.

For RRIRPRPPRLPRPRPRPYYFPRP, which “shrunken log2 fold change” value is on record?
Its value is -0.427.

How did the “shrunken log2 fold change” value turn out when RRIRQRPPRLPRPRPRPADAPRP was run?
Its value is 0.242.

Which “shrunken log2 fold change” value does the source give for RRIRQRPPRLPRPRPRPAEFPRP here?
Its value is -0.0119.

Which “shrunken log2 fold change” value does the source give for RRIRQRPPRLPRPRPRPAFMPRP here?
Its value is -0.0902.

How did the “shrunken log2 fold change” value turn out when RRIRQRPPRLPRPRPRPAFSPRP was run?
Its value is 0.12.

RRIRQRPPRLPRPRPRPAGDPRP was tested. Which “shrunken log2 fold change” value did it give?
Its value is 0.127.

With RRIRQRPPRLPRPRPRPAHGPRP as the sequence, how does the “shrunken log2 fold change” value read?
The value was 0.19.

How did the “shrunken log2 fold change” value turn out when RRIRQRPPRLPRPRPRPAIAPRP was run?
The value was 0.0382.

For RRIRQRPPRLPRPRPRPAIQPRP, which “shrunken log2 fold change” value is on record?
The value was -0.679.

For RRIRQRPPRLPRPRPRPAKEPRP, which “shrunken log2 fold change” value is on record?
The value was -0.0803.

For RRIRQRPPRLPRPRPRPAKYPRP, which “shrunken log2 fold change” value is on record?
Its value is -0.0291.

With RRIRQRPPRLPRPRPRPAMTPRP as the sequence, how does the “shrunken log2 fold change” value read?
Its value is 0.00659.

With RRIRQRPPRLPRPRPRPAQDPRP as the sequence, how does the “shrunken log2 fold change” value read?
Its value is 0.226.

For RRIRQRPPRLPRPRPRPAQEPRP, which “shrunken log2 fold change” value is on record?
Its value is 0.852.

With RRIRQRPPRLPRPRPRPARIPRP as the sequence, how does the “shrunken log2 fold change” value read?
The value was -0.0224.

RRIRQRPPRLPRPRPRPASHPRP was tested. Which “shrunken log2 fold change” value did it give?
The value was 0.189.
